Experimental data: paper PMC6769588

Target: lectin-like oxidized LDL receptor 1 (LOX1) on bEnd.3 cells (mouse (endogenous in bEnd.3)) (UniProt Q9EQ09)
Chain of UniProt Q9EQ09 (Q9EQ09 whole entry): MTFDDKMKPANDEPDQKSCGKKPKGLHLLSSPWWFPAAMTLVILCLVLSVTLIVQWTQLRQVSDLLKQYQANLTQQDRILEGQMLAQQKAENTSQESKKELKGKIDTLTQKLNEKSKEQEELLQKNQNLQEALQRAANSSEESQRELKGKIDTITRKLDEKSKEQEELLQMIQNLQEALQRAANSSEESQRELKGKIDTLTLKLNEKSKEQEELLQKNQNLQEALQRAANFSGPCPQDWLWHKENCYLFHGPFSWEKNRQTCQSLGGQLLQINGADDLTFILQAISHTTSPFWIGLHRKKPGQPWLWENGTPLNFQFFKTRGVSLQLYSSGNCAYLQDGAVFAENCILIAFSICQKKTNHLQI

“Acrolein-modified apolipoprotein E3 (acro-apoE3) (from UniProt P02649 19-317) (natural protein)” was tested, and the decrease in uptake of DiI-labeled acro-apoE3/rHDL (3 µg/mL) by bEnd.3 cells pre-treated with anti-LOX1 antibody was 80 % decrease.
